{
  "source": "patent US9289509B2",
  "about": "“Uses of immunoconjugates targeting CD138” (Biotest AG, priority 2009, dated 2016)",
  "key": {"[1]": {"system": "Pancreatic tumor tissue (PAXF 736)", "test": "Pancreas carcinoma xenograft (PAXF 736) in NMRI mice", "conditions": "for T/C (%): day 52"}, "[2]": {"test": "Phase I study: BT062 plasma concentration (cmax)", "conditions": "for effective cmax (cycle 1) mean / effective cmax (cycle 4) mean: human plasma; for effective cmax (cycle 1) mean: 0-2 h post infusion; for effective cmax (cycle 4) mean: cycle 4 (day 64); for percentage of theoretical cmax (cycle 1) / percentage of theoretical cmax (cycle 4): human"}, "SK-BR-3": {"system": "SK-BR-3", "test": "Sensitivity of cell lines towards BT062 (IC50)", "format": "cell-based", "conditions": "SK-BR-3 (breast carcinoma)"}},
  "note": "Several values for one entry are separate records, joined by “and”; a condition that tells them apart may be missing. Equal values may be shown once.",
  "data": [
    {"substance": "BT062", "values": [
      {"measurement": "time to complete remission after tumor implantation", "setting": "[1]; 13.25 mg/kg", "result": 35, "unit": "days"},
      {"measurement": "T/C (%)", "setting": "[1]; 13.25 mg/kg", "result": 0.0, "unit": "%"},
      {"measurement": "time to complete remission after tumor implantation", "setting": "[1]; 23.85 mg/kg", "result": 28, "unit": "days"},
      {"measurement": "T/C (%)", "setting": "[1]; 23.85 mg/kg", "result": 0.0, "unit": "%"},
      {"measurement": "mice alive after 52 days", "setting": "[1]; both administration regimes, control group reduced to 1 of eight", "result": "8/8"},
      {"measurement": "side effects", "setting": "[1]; mouse, in vivo", "result": "No side effects were observed"},
      {"measurement": "tumor regrowth", "setting": "[1]; treatment free observation phase", "result": "no tumor regrowth was detected"},
      {"measurement": "effective cmax (cycle 1) mean", "setting": "[2]; 10 mg/m^2", "result": "1.11 µg/mL and 1.1 µg/mL"},
      {"measurement": "effective cmax (cycle 1) mean", "setting": "[2]; 20 mg/m^2", "result": 2.9, "unit": "µg/mL"},
      {"measurement": "effective cmax (cycle 4) mean", "setting": "[2]; 20 mg/m^2 every 21 days", "result": 7.06, "unit": "µg/mL"},
      {"measurement": "effective cmax (cycle 1) mean", "setting": "[2]; 40 mg/m^2", "result": 4.31, "unit": "µg/mL"},
      {"measurement": "effective cmax (cycle 4) mean", "setting": "[2]; 40 mg/m^2 every 21 days", "result": 2.51, "unit": "µg/mL"},
      {"measurement": "effective cmax (cycle 1) mean", "setting": "[2]; 80 mg/m^2", "result": 18.8, "unit": "µg/mL"},
      {"measurement": "effective cmax (cycle 4) mean", "setting": "[2]; 80 mg/m^2 every 21 days", "result": 14.2, "unit": "µg/mL"},
      {"measurement": "effective cmax (cycle 1) mean", "setting": "[2]; 120 mg/m^2", "result": 21.4, "unit": "µg/mL"},
      {"measurement": "effective cmax (cycle 1) mean", "setting": "[2]; 160 mg/m^2", "result": 81.2, "unit": "µg/mL"},
      {"measurement": "effective cmax (cycle 4) mean", "setting": "[2]; 160 mg/m^2 every 21 days", "result": 77.4, "unit": "µg/mL"},
      {"measurement": "effective cmax (cycle 1) mean", "setting": "[2]; 200 mg/m^2", "result": 82.0, "unit": "µg/mL"},
      {"measurement": "plasma clearance", "setting": "[2]; human subjects, doses up to at least 120 mg/m^2, less than 160 mg/m^2", "result": "rapid plasma clearance"},
      {"measurement": "percentage of theoretical cmax (cycle 1)", "setting": "[2]; 10 mg/m^2", "result": "15% (3)"},
      {"measurement": "percentage of theoretical cmax (cycle 1)", "setting": "[2]; 20 mg/m^2", "result": "20% (4)"},
      {"measurement": "percentage of theoretical cmax (cycle 4)", "setting": "[2]; 20 mg/m^2", "result": "49% (2)"},
      {"measurement": "percentage of theoretical cmax (cycle 1)", "setting": "[2]; 40 mg/m^2", "result": "16% (3)"},
      {"measurement": "percentage of theoretical cmax (cycle 4)", "setting": "[2]; 40 mg/m^2", "result": "9% (3)"},
      {"measurement": "percentage of theoretical cmax (cycle 1)", "setting": "[2]; 80 mg/m^2", "result": "34% (3)"},
      {"measurement": "percentage of theoretical cmax (cycle 4)", "setting": "[2]; 80 mg/m^2", "result": "26% (2)"},
      {"measurement": "percentage of theoretical cmax (cycle 1)", "setting": "[2]; 120 mg/m^2", "result": "26.5% (3)"},
      {"measurement": "percentage of theoretical cmax (cycle 1)", "setting": "[2]; 160 mg/m^2", "result": "74.5% (4)"},
      {"measurement": "percentage of theoretical cmax (cycle 4)", "setting": "[2]; 160 mg/m^2", "result": "71% (1)"},
      {"measurement": "percentage of theoretical cmax (cycle 1)", "setting": "[2]; 200 mg/m^2", "result": "60% (3)"},
      {"measurement": "IC50", "setting": "SK-BR-3", "result": 2.72, "unit": "nM"}
    ]}
  ]
}
